To fix the notation:
B1: HDV Ribozyme (parent)
chain: GGCCGGCAUGGUCCCAGCCUCCUCGCUGGCGCCGGCUGGGCAACAUUCCGAGGGGACCGUCCCCUCGGUAAUGGCGAAUGGGACCCA

Drawing on the RNAGym collection of RNA variant scans (doi:10.7554/elife.80360), this text covers self-cleavage for 167 variants.

This series covers variants of B1. Kind of series: self-cleavage, relative activity (ratio to wild type); higher = more cleavage; co-transcriptional.
Regarding G53U A77G, the self-cleavage was 0.8.

Regarding A51G A77C, the self-cleavage worked out at 0.322.

Consider A51G A77U, for which the self-cleavage stood at 0.682.

With G53C A77G, the self-cleavage amounted to 0.88.

G54C G76A: the self-cleavage was 1.1.

For the variant A51C G73A, the self-cleavage was determined as 0.383.

Take G53C C62G: the self-cleavage worked out at 1.01.

For the variant G50U C85U, the self-cleavage was determined as 1.02.

As to G50U U65C, the self-cleavage amounted to 0.791.

Regarding G50U U65A, the self-cleavage came out at 0.981.

For the variant G50U A77C, the self-cleavage was found to be 0.499.

For the variant G53U U65C, the self-cleavage amounted to 0.819.

Regarding A51U U79C, the self-cleavage amounted to 0.49.

A51U U79A: the self-cleavage is 1.09.

On to G54A C58U, for which the self-cleavage amounted to 1.22.

Take G54A C58A: the self-cleavage worked out at 0.773.

A51C C84U: the self-cleavage stood at 0.831.

Consider A51C C84G, for which the self-cleavage was 0.536.

Take G52A U69A: the self-cleavage was determined as 1.05.

For the variant G50U C84U, the self-cleavage amounted to 0.665.

Take G50C G73A: the self-cleavage is 0.407.

In the case of A51U U72G, the self-cleavage was 0.534.

Regarding A51C A78C, the self-cleavage is 0.277.

With G52C G55C, the self-cleavage came out at 1.03.

As to G53U C66A, the self-cleavage was determined as 0.937.

Turning to A51U G80A, the self-cleavage is 0.344.

G52U G67U: the self-cleavage is 0.205.

In the case of G52A G54U, the self-cleavage was 0.815.

For the variant G52A G54A, the self-cleavage amounted to 0.9.

G50A G76U: the self-cleavage turned out to be 1.01.

For the variant A51C C57A, the self-cleavage was determined as 1.02.

On to A51G G80A, for which the self-cleavage was found to be 0.376.

As to G53C U69C, the self-cleavage was 1.01.

For G53C U69G, the self-cleavage is 1.14.

With A51G U72A, the self-cleavage came to 0.665.

Consider G53U C86G, for which the self-cleavage is 1.12.

Consider G50C G81C, for which the self-cleavage was 0.125.

As to G53A U65G, the self-cleavage turned out to be 0.708.

Consider G50A G68A, for which the self-cleavage worked out at 0.957.

In the case of G50A G68C, the self-cleavage came out at 0.631.

For A51C U65C, the self-cleavage turned out to be 0.942.

As for G52C C62U, the self-cleavage is 0.987.

With G53C A71C, the self-cleavage came out at 0.356.

Take G53C A71G: the self-cleavage was 1.07.

As for G50C U65G, the self-cleavage amounted to 0.453.

G50C U65C: the self-cleavage was found to be 1.05.

As to G50U U60G, the self-cleavage is 0.831.

For the variant G50C U69A, the self-cleavage is 0.831.

For the variant G50C U69G, the self-cleavage stood at 1.05.

As for A51U G53A, the self-cleavage was determined as 0.927.

Regarding G53U C64A, the self-cleavage is 0.777.

For A51U C62A, the self-cleavage was 0.759.

Turning to G52C A56C, the self-cleavage came to 0.95.

With G52C A56U, the self-cleavage was 1.12.

G52C A56G: the self-cleavage was found to be 0.851.

On to G52C G82A, for which the self-cleavage was 0.712.

Consider G53U G55A, for which the self-cleavage is 1.18.

As to A51U G74A, the self-cleavage came to 0.288.

Regarding G53U G68A, the self-cleavage came out at 0.903.

For G50C A78G, the self-cleavage stood at 0.584.

In the case of G50C A78C, the self-cleavage worked out at 0.188.

For the variant G50C U72C, the self-cleavage was 0.494.

Turning to A51U G67A, the self-cleavage turned out to be 0.78.

For A51U G67U, the self-cleavage was 0.816.

For the variant G54A A77C, the self-cleavage is 0.383.

Turning to G52U U60G, the self-cleavage stood at 0.978.

In the case of G52U U60A, the self-cleavage was 1.05.

For the variant G54A G59C, the self-cleavage came to 1.07.

On to G54A G59A, for which the self-cleavage came to 1.01.

G53A C85G: the self-cleavage was 0.923.

As for G50U U69C, the self-cleavage is 0.962.

Consider A51C C61G, for which the self-cleavage came out at 0.731.

Turning to A51U A78G, the self-cleavage turned out to be 0.532.

In the case of G53C C75A, the self-cleavage amounted to 0.175.

G53C C75G: the self-cleavage was 0.0627.

Consider G53U A71U, for which the self-cleavage worked out at 0.92.

For G50A U65A, the self-cleavage turned out to be 1.02.

For the variant G50C A87G, the self-cleavage was found to be 0.974.

With G50C A87U, the self-cleavage was found to be 1.15.

Turning to G50C A87C, the self-cleavage came to 0.95.

As for G52U A71G, the self-cleavage came to 0.901.

With G52C C84U, the self-cleavage is 0.537.

Take G53U C61U: the self-cleavage was 0.994.

For the variant G53U C61G, the self-cleavage came out at 0.899.

As to G50A U69C, the self-cleavage turned out to be 0.688.

For the variant G53U G67C, the self-cleavage was 0.534.

As to G50C C84A, the self-cleavage turned out to be 0.743.

For G52C U60A, the self-cleavage stood at 1.02.

Consider G52C U60G, for which the self-cleavage was 0.944.

Turning to G53U C75A, the self-cleavage amounted to 0.117.

Regarding G52A G55A, the self-cleavage worked out at 0.893.

On to G54C C62A, for which the self-cleavage was 0.967.

For the variant G53U G76A, the self-cleavage was 1.09.

Regarding G52A C61A, the self-cleavage was found to be 1.19.

Turning to G50C C85G, the self-cleavage was found to be 0.831.

Turning to G50C C85U, the self-cleavage worked out at 1.09.

In the case of A51C G55A, the self-cleavage came out at 0.873.

For A51G C58G, the self-cleavage amounted to 0.969.

G52U A83G: the self-cleavage amounted to 0.81.

As for G52C A83C, the self-cleavage amounted to 0.475.

Take G52A C85G: the self-cleavage was 1.

Turning to G53A G55A, the self-cleavage turned out to be 0.923.

As to G53A G55C, the self-cleavage turned out to be 0.912.

As for G54A A83U, the self-cleavage was determined as 0.509.

For G54A A83G, the self-cleavage is 0.692.

Regarding G54A A83C, the self-cleavage amounted to 0.277.

As for A51G C57A, the self-cleavage stood at 0.877.

On to A51C C75A, for which the self-cleavage came out at 0.0449.

Turning to G52U U69C, the self-cleavage worked out at 0.831.

On to G52U U69A, for which the self-cleavage turned out to be 1.09.

On to G52A U60G, for which the self-cleavage amounted to 0.897.

As to G52A U60A, the self-cleavage was 0.975.

For the variant G52C A87U, the self-cleavage amounted to 1.

For G53C U60G, the self-cleavage was 1.01.

In the case of G52A G68A, the self-cleavage was determined as 0.788.

With G54C C86G, the self-cleavage was found to be 1.02.

Turning to G54C C86A, the self-cleavage is 0.962.

As to G53U A78U, the self-cleavage is 0.251.

As for G53U G82C, the self-cleavage stood at 0.381.

G52A A71C: the self-cleavage came out at 0.744.

As to G52U C75G, the self-cleavage came out at 0.297.

Take G50U G54U: the self-cleavage is 0.668.

Turning to A51C G53C, the self-cleavage is 0.196.

As to G52U U65C, the self-cleavage stood at 0.658.

For the variant A51C U72C, the self-cleavage stood at 0.475.

In the case of G50U G73A, the self-cleavage came to 0.634.

Turning to G53U C84A, the self-cleavage was 0.754.

As to G53U C84G, the self-cleavage stood at 0.554.

Regarding G50A U72A, the self-cleavage stood at 0.677.

Turning to G50C G68C, the self-cleavage came out at 0.249.

Regarding G50C G68U, the self-cleavage was found to be 0.597.

On to G54C C64G, for which the self-cleavage is 0.787.

In the case of G54C C58A, the self-cleavage worked out at 0.923.

On to G53C C57A, for which the self-cleavage amounted to 0.95.

G53U C62A: the self-cleavage is 0.901.

For the variant G50U C63U, the self-cleavage was found to be 0.909.

For the variant G50U C63G, the self-cleavage came to 0.332.

Consider G53A C61G, for which the self-cleavage is 0.751.

G54C G55A: the self-cleavage amounted to 1.08.

Turning to A51G C86G, the self-cleavage was determined as 0.702.

Take G52C G54U: the self-cleavage is 0.513.

In the case of G52A A56C, the self-cleavage worked out at 1.11.

For G50A G81C, the self-cleavage was 0.225.

Regarding G50A G81U, the self-cleavage was 0.281.

For the variant G50A G81A, the self-cleavage came out at 0.415.

As to G52C U79G, the self-cleavage was 0.475.

For G53C C86A, the self-cleavage is 0.866.

On to A51C C63G, for which the self-cleavage is 0.322.

Take A51C C63A: the self-cleavage was 0.475.

Take G50C A83C: the self-cleavage was 0.317.

A51U G52A: the self-cleavage stood at 1.15.

As to G53C G74A, the self-cleavage was found to be 0.405.

For the variant A51C A70U, the self-cleavage is 1.15.

For the variant A51C A70G, the self-cleavage amounted to 0.849.

Consider G50U A71U, for which the self-cleavage was 1.02.

As for G53U C57A, the self-cleavage turned out to be 0.944.

Regarding A51G G67U, the self-cleavage was 0.65.

Take G52U U72A: the self-cleavage amounted to 0.496.

With G54C G59C, the self-cleavage came to 1.21.

In the case of G52A G74U, the self-cleavage was determined as 0.561.

Take G52A G74C: the self-cleavage is 0.133.

For A51U G81C, the self-cleavage came out at 0.407.

In the case of A51G A78U, the self-cleavage was 0.156.

As to G50C G54C, the self-cleavage was 0.32.

For the variant A51G G68A, the self-cleavage was determined as 0.901.

Consider A51G G68C, for which the self-cleavage came out at 0.831.

For G50U G67U, the self-cleavage was found to be 1.02.
